In patent publication US20090192048A1, “METHOD OF PRODUCING A […] AGENT FOR BINDING A LIGAND” (priority 2005, published 2009):
Ends that are not written are not given here.

Assay: Time-dependent persistence of peptide 2DOS-2 on a polypropylene hydrophobic surface in aqueous buffer
Format: physicochemical
Experimental: The time-dependent persistence of peptide 2DOS-2 (see above) deposited onto a polypropylene hydrophobic surface in the presence of aqueous buffer was investigated as shown below:
Twelve 100 μl aliquots of 5 μM peptide 2DOS-2 in 5 mM tris-HCl (pH 8.0) in 75% (v/v) aqueous acetonitrile were dispensed to the wells of the top row of a Costar microtitre plate.
The peptide samples were allowed to evaporate to dryness in the dark.
The dried peptide samples in wells 1-10 were incubated with 250 μl of 1 M NaCl in 10 mM tris-HCl (pH 8.0) for the time indicated below at room temperature. All supernatants were pipetted up and down 8 times after incubation and the supernatants were then removed and placed in the wells of the bottom row of the microtitre plate.
The residual surface-bound peptides in all twelve wells were finally resuspended in 50 μl of 10 mM tris-HCl (pH 8.0) in 50% (v/v) aqueous acetonitrile and the microtitre plates were imaged at 200 μm resolution on a Typhoon Trio Plus variable mode imager (Amersham Biosciences) with the green (532 nm) laser and the 580 BP 30 filter at the PMT voltages indicated below and at normal sensitivity. The scan height was set at +3 mm and the sample was pressed during scanning.
The fluorescence images were analysed using ImageQuant TL v2003.03 (Amersham Biosciences).

For “N-TAMRA-Phe-Asp- Phe-Ala-Phe-Ser- Phe-Lys-Phe-C ({TAMRA}-FDFAFSFKF) [Peptide 2DOS-2]”, the Percent retention (0 minutes in 1 M NaCl/10 mM tris-HCl (pH 8.0)) was 90%, the Retained fluorescence (0 minutes in 1 M NaCl/10 mM tris-HCl (pH 8.0), 300V scan) was 904,211 and the “Stability of retention on polypropylene over time (in words)” value (1 M NaCl/10 mM tris-HCl (pH 8.0), up to 510 minutes) was “stable for extended periods of time”. The Percent retention (2.5 minutes in 1 M NaCl/10 mM tris-HCl (pH 8.0)) was 90%, the Retained fluorescence (2.5 minutes in 1 M NaCl/10 mM tris-HCl (pH 8.0), 300V scan) was 902,082 and the “Untreated fluorescence (average)” value (300V scan, unwashed wells) was 1,000,613. The Percent retention (5 minutes in 1 M NaCl/10 mM tris-HCl (pH 8.0)) was 85%, the Retained fluorescence (5 minutes in 1 M NaCl/10 mM tris-HCl (pH 8.0), 300V scan) was 847,767 and the Percent retention (10 minutes in 1 M NaCl/10 mM tris-HCl (pH 8.0)) was 79%. The Retained fluorescence (10 minutes in 1 M NaCl/10 mM tris-HCl (pH 8.0), 300V scan) was 792,427, the Percent retention (20 minutes in 1 M NaCl/10 mM tris-HCl (pH 8.0)) was 75% and the Retained fluorescence (20 minutes in 1 M NaCl/10 mM tris-HCl (pH 8.0), 300V scan) was 749,522. For the same substance, the Percent retention (40 minutes in 1 M NaCl/10 mM tris-HCl (pH 8.0)) was 77%, the Retained fluorescence (40 minutes in 1 M NaCl/10 mM tris-HCl (pH 8.0), 300V scan) was 769,659 and the Percent retention (80 minutes in 1 M NaCl/10 mM tris-HCl (pH 8.0)) was 74%. The Retained fluorescence (80 minutes in 1 M NaCl/10 mM tris-HCl (pH 8.0), 300V scan) was 740,227, the Percent retention (160 minutes in 1 M NaCl/10 mM tris-HCl (pH 8.0)) was 74% and the Retained fluorescence (160 minutes in 1 M NaCl/10 mM tris-HCl (pH 8.0), 300V scan) was 739,600. For the same substance, the Percent retention (320 minutes in 1 M NaCl/10 mM tris-HCl (pH 8.0)) was 81%, the Retained fluorescence (320 minutes in 1 M NaCl/10 mM tris-HCl (pH 8.0), 300V scan) was 805,530 and the Percent retention (510 minutes in 1 M NaCl/10 mM tris-HCl (pH 8.0)) was 80%. For the same substance, the Retained fluorescence (510 minutes in 1 M NaCl/10 mM tris-HCl (pH 8.0), 300V scan) was 803,741.
